Assay results: paper PMC3977970

Target: T1, GST-PTPMT1 (human) (UniProt Q8WUK0)
T1 sequence: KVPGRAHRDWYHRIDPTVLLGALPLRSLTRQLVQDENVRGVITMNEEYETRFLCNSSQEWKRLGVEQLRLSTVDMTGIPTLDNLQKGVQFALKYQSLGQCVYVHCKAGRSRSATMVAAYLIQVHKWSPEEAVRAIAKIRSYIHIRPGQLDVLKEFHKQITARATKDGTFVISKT

“FLAG-MK-STYX (from UniProt Q9Y6J8-1 2-313) (natural protein)” gave a reduction of PTPMT1 phosphatase activity towards OMFP, compared to FLAG protein alone; MK-STYX incubated with GST-PTPMT1 at 1:1 (51%) to 2:1 (60%) mass ratio of 60%.
